Assays:
[1] = molecular target: TZSV N protein (recombinant, expressed from pET30a-TZSV in E. coli BL21 (DE3)) (tomato zonate spot virus); assay: indirect ELISA, negative of the row of FL484-26
[2] = molecular target: TZSV N protein (recombinant, expressed from pET30a-TZSV in E. coli BL21 (DE3)) (tomato zonate spot virus); assay: indirect ELISA, negative of the row of FL484-35
[3] = molecular target: TZSV N protein (recombinant, expressed from pET30a-TZSV in E. coli BL21 (DE3)) (tomato zonate spot virus); assay: indirect ELISA, negative of the row of FL484-5
[4] = molecular target: TZSV N protein (recombinant, expressed from pET30a-TZSV in E. coli BL21 (DE3)) (tomato zonate spot virus); assay: indirect ELISA, negative of the row of FL484-15
[5] = molecular target: TZSV N protein (recombinant, expressed from pET30a-TZSV in E. coli BL21 (DE3)) (tomato zonate spot virus); assay: indirect ELISA, negative of the row of FL484-18
[6] = molecular target: TZSV N protein (recombinant, expressed from pET30a-TZSV in E. coli BL21 (DE3)) (tomato zonate spot virus); assay: indirect ELISA, negative control of the row of M210046
[7] = molecular target: TZSV N protein (recombinant, expressed from pET30a-TZSV in E. coli BL21 (DE3)) (tomato zonate spot virus); assay: indirect ELISA, negative of the row of FL484-9
[8] = molecular target: TZSV N protein (recombinant, expressed from pET30a-TZSV in E. coli BL21 (DE3)) (tomato zonate spot virus); assay: indirect ELISA, negative of the row of FL484-24
[9] = molecular target: TZSV N protein (recombinant, expressed from pET30a-TZSV in E. coli BL21 (DE3)) (tomato zonate spot virus); assay: indirect ELISA, negative of the row of FL484-4
[10] = molecular target: TZSV N protein (recombinant, expressed from pET30a-TZSV in E. coli BL21 (DE3)) (tomato zonate spot virus); assay: indirect ELISA, negative of the row of FL484-13
[11] = molecular target: TZSV N protein (recombinant, expressed from pET30a-TZSV in E. coli BL21 (DE3)) (tomato zonate spot virus); assay: indirect ELISA, negative of the row of FL484-6
[12] = molecular target: TZSV N protein (recombinant, expressed from pET30a-TZSV in E. coli BL21 (DE3)) (tomato zonate spot virus); assay: indirect ELISA, negative of the row of FL484-25
[13] = molecular target: TZSV N protein (recombinant, expressed from pET30a-TZSV in E. coli BL21 (DE3)) (tomato zonate spot virus); assay: indirect ELISA, negative of the row of FL484-21
[14] = molecular target: TZSV N protein (recombinant, expressed from pET30a-TZSV in E. coli BL21 (DE3)) (tomato zonate spot virus); assay: indirect ELISA, negative of the row of FL484-7
[15] = molecular target: TZSV N protein (recombinant, expressed from pET30a-TZSV in E. coli BL21 (DE3)) (tomato zonate spot virus); assay: indirect ELISA, negative of the row of FL484-32
[16] = molecular target: TZSV N protein (recombinant, expressed from pET30a-TZSV in E. coli BL21 (DE3)) (tomato zonate spot virus); assay: indirect ELISA, negative of the row of FL484-22
[17] = molecular target: TZSV N protein (recombinant, expressed from pET30a-TZSV in E. coli BL21 (DE3)) (tomato zonate spot virus); assay: indirect ELISA, negative of the row of FL484-8
[18] = molecular target: TZSV N protein (recombinant, expressed from pET30a-TZSV in E. coli BL21 (DE3)) (tomato zonate spot virus); assay: indirect ELISA, negative of the row of FL484-17
[19] = molecular target: TZSV N protein (recombinant, expressed from pET30a-TZSV in E. coli BL21 (DE3)) (tomato zonate spot virus); assay: indirect ELISA, negative of the row of FL484-23
[20] = molecular target: TZSV N protein (recombinant, expressed from pET30a-TZSV in E. coli BL21 (DE3)) (tomato zonate spot virus); assay: indirect ELISA, negative of the row of FL484-31
[21] = molecular target: TZSV N protein (recombinant, expressed from pET30a-TZSV in E. coli BL21 (DE3)) (tomato zonate spot virus); assay: indirect ELISA, negative of the row of FL484-19
[22] = molecular target: TZSV N protein (recombinant, expressed from pET30a-TZSV in E. coli BL21 (DE3)) (tomato zonate spot virus); assay: indirect ELISA, negative of the row of FL484-29
[23] = molecular target: TZSV N protein (recombinant, expressed from pET30a-TZSV in E. coli BL21 (DE3)) (tomato zonate spot virus); assay: indirect ELISA, negative of the row of FL484-11
[24] = molecular target: TZSV N protein (recombinant, expressed from pET30a-TZSV in E. coli BL21 (DE3)) (tomato zonate spot virus); assay: indirect ELISA, negative of the row of FL484-1
[25] = molecular target: TZSV N protein (recombinant, expressed from pET30a-TZSV in E. coli BL21 (DE3)) (tomato zonate spot virus); assay: indirect ELISA, negative of the row of FL484-28
[26] = molecular target: TZSV N protein (recombinant, expressed from pET30a-TZSV in E. coli BL21 (DE3)) (tomato zonate spot virus); assay: indirect ELISA, negative control of the row of M210045
[27] = molecular target: TZSV N protein (recombinant, expressed from pET30a-TZSV in E. coli BL21 (DE3)) (tomato zonate spot virus); assay: indirect ELISA, negative control of the row of M210047
[28] = molecular target: TZSV N protein (recombinant, expressed from pET30a-TZSV in E. coli BL21 (DE3)) (tomato zonate spot virus); assay: indirect ELISA, negative of the row of FL484-30
[29] = molecular target: TZSV N protein (recombinant, expressed from pET30a-TZSV in E. coli BL21 (DE3)) (tomato zonate spot virus); assay: indirect ELISA, negative of the row of FL484-34
[30] = molecular target: TZSV N protein (recombinant, expressed from pET30a-TZSV in E. coli BL21 (DE3)) (tomato zonate spot virus); assay: indirect ELISA, negative of the row of FL484-10
[31] = molecular target: TZSV N protein (recombinant, expressed from pET30a-TZSV in E. coli BL21 (DE3)) (tomato zonate spot virus); assay: indirect ELISA, negative control of the row of M210048
[32] = molecular target: TZSV N protein (recombinant, expressed from pET30a-TZSV in E. coli BL21 (DE3)) (tomato zonate spot virus); assay: indirect ELISA, negative of the row of FL484-12
[33] = molecular target: TZSV N protein (recombinant, expressed from pET30a-TZSV in E. coli BL21 (DE3)) (tomato zonate spot virus); assay: indirect ELISA, negative of the row of FL484-16
[34] = molecular target: TZSV N protein (recombinant, expressed from pET30a-TZSV in E. coli BL21 (DE3)) (tomato zonate spot virus); assay: indirect ELISA, negative of the row of FL484-27
[35] = molecular target: TZSV N protein (recombinant, expressed from pET30a-TZSV in E. coli BL21 (DE3)) (tomato zonate spot virus); assay: indirect ELISA, negative of the row of FL484-3
[36] = molecular target: TZSV N protein (recombinant, expressed from pET30a-TZSV in E. coli BL21 (DE3)) (tomato zonate spot virus); assay: indirect ELISA, negative of the row of FL484-2
[37] = molecular target: TZSV N protein (recombinant, expressed from pET30a-TZSV in E. coli BL21 (DE3)) (tomato zonate spot virus); assay: indirect ELISA, negative of the row of FL484-20
[38] = molecular target: TZSV N protein (recombinant, expressed from pET30a-TZSV in E. coli BL21 (DE3)) (tomato zonate spot virus); assay: indirect ELISA, negative of the row of FL484-14
[39] = molecular target: TZSV N protein (recombinant, expressed from pET30a-TZSV in E. coli BL21 (DE3)) (tomato zonate spot virus); assay: indirect ELISA, negative of the row of FL484-33

negative control (mouse serum before immunization)
OD450 [1]: 0.161 OD | OD450 [2]: 0.19 OD | OD450 [3]: 0.237 OD | OD450 [4]: 0.187 OD | OD450 [5]: 0.179 OD | OD450 [6]: 0.146 OD | OD450 [7]: 0.171 OD | OD450 [8]: 0.203 OD | OD450 [9]: 0.23 OD | OD450 [10]: 0.155 OD | OD450 [11]: 0.24 OD | OD450 [12]: 0.234 OD | OD450 [13]: 0.18 OD | OD450 [14]: 0.24 OD | OD450 [15]: 0.194 OD | OD450 [16]: 0.163 OD | OD450 [17]: 0.196 OD | OD450 [18]: 0.186 OD | OD450 [19]: 0.232 OD | OD450 [20]: 0.172 OD | OD450 [21]: 0.164 OD | OD450 [22]: 0.215 OD | OD450 [23]: 0.052 OD | OD450 [24]: 0.169 OD | OD450 [25]: 0.229 OD | OD450 [26]: 0.137 OD | OD450 [27]: 0.137 OD | OD450 [28]: 0.265 OD | OD450 [29]: 0.193 OD | OD450 [30]: 0.158 OD | OD450 [31]: 0.125 OD | OD450 [32]: 0.157 OD | OD450 [33]: 0.209 OD | OD450 [34]: 0.197 OD | OD450 [35]: 0.14 OD | OD450 [36]: 0.208 OD | OD450 [37]: 0.236 OD | OD450 [38]: 0.19 OD | OD450 [39]: 0.221 OD
